Results as given in the nanobody polyreactivity screen of Harvey et al. (2022).

Assay: yeast display, Sf9 membrane polyspecificity reagent, FACS + sequencing; frameworks hold sequencing errors
Procedure, shortened: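 Polyreactivity labels are assigned by the sorting gate from which each nanobody was recovered. The gates were low and high (top ~1%), set on anti-HA fluorescence for expression and streptavidin fluorescence for reagent binding. Before sorting, galactose-induced (36–48 hours) yeast display cells were stained for 1 hour at 4 °C with 10% biotinylated, detergent-solubilized Sf9 membrane reagent.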

Sequence	polyreactivity (PSR sort gate)
QVQLVESGGGLVQAGGSLRLSCAASGRMFWSNAMGWYIQAPGKERELFAAIRNTGSTNYADSVKGRFTISRDNAKNTVYLQMNSLKPEDTAVYYCAAYKGSSKYDYWGQGTQVTVSS	high polyreactivity
QVQLVESGGGLVQAGGSLRLSCAASGRNFENNAMGWYRQAPGKERELVAAITSSGGRTYYADSVKGRFTISRDNAKNTVYLQMNSLKPEDTAVYYCAADNFAPEFYYWGQGTQVTVSS	low polyreactivity
QVQLVESGGGLVQAGGSLRLSCAASGRNFGNYAMGGYRQAPGKERELVAAISNGGSTNYADSVKGRVTISRDNAKNTVYFQMNSLKPEDTAVYYCNADQWAVIWGYLVLDFYYWGQGTQVPVSS	low polyreactivity
QVQLVESGGGLVQAGGSLRLSCAASGRNFIDYMGWYRQAPGKERELVAAIDSGASTYYADSVKGRFTISRDNAKNTVYLQMNSLNPEDTAVYYCAADVVYDYGGMDYWGQGTLVTVSS	low polyreactivity
QVQLVESGGGLVQAGGSLRLSCAASGRNFIYNAMGWYRQAPGKERELVAAISRSGGSTNYADSVKGRFTISRDNAKNTVYLQMNSLKPEDTAVYYCAVDSGRYYYYLGFSTRYYWGQGTQVTVSS	high polyreactivity
QVQLVESGGGLVQAGGSLRLSCAASGRNFKFYAMGWYRQAPGKERELVAGINTDGGSTYYADSVKGRFTISRDNAKNTVYLQMNSLKPEDTAVYYCNAYYYKPARKYARHYDYWGQGTQVTVSS	low polyreactivity
QVQLVESGGGLVQAGGSLRLSCAASGRNFKIYTMGWYRQAPGKERELVAAISSSGRTYYADSVKGRFTISRDNAKNTVYLQMNSLKPEDTAVYYCAAVPYTRWKGADGDYWGQGTQVTVSS	high polyreactivity
QVQLVESGGGLVQAGGSLRLSCAASGRNFLVYAMGWYRQAPGKERELVAAITYSDGSTYYADSVKGRFTISRDNAKNTVYLQMNSLKPEDTAVYYCAADSSTFPSDYYWGKGTQVTVSS	low polyreactivity
QVQLVESGGGLVQAGGSLRLSCAASGRNFPLNAMGWYRQAPWKERELVAAISIGGSTYYADSVKGRFTISRDNPKNTVYLQMNSLKPDETAVYYCAAVWYTSRQKYDYWGQGTQVTVSS	low polyreactivity
QVQLVESGGGLVQAGGSLRLSCAASGRNFRANAMGWSRQEPGKERELVASITYSGGSTYYADSVKGRFTISRDNAKNTVYVQMNSLKPEDTAVYYCARAGISSGGYYYWGQGTQVTVSS	low polyreactivity
QVQLVESGGGLVQAGGSLRLSCAASGRNFRDYTMGWYRQAPGKERELVAAITSTGDTNYADSVKGRFTISRDNAKNTVYLQMNSLKPEDTAVYYCATQTGEEYQAPLIYDYWGQGTQVTVSS	low polyreactivity
QVQLVESGGGLVQAGGSLRLSCAASGRNFSYYAMGWYRQAPGKERELVAAISWNGGSTYYADSVKGRFTISRDNAKNTVYLQMNSLKPEDTAVYYCAVLPHYEYDYWGQGTQVTVSS	high polyreactivity
QVQLVESGGGLVQAGGSLRLSCAASGRNFTIYAMGWYRQAPGKERELVATISSNVGSTYYADSVKGRFTISRDNAKNTVYLQMNSLKPEDTAVYYCNVVPYLYGLDGYDYWGQGTQVTVSS	high polyreactivity
QVQLVESGGGLVQAGGSLRLSCAASGRNFTSNSMGLYRQAPGKEREFVAAITTSGASTRYADSVKGRFTISRDNAKNTVYLQMNSLKPEDTAVYYCAAEQRRFTGYDYWGQGTQVTVSS	high polyreactivity
QVQLVESGGGLVQAGGSLRLSCAASGRNFVRYTMGWYRQAPGKERELVAAISGSGSSTFYADSVKGRFTISRDNAKNTVYLQMNSLKPEDTAVYYCAARVRRVARDPYDYWGQGTQVTVSS	high polyreactivity
QVQLVESGGGLVQAGGSLRLSCAASGRNFVTNAMGWYRQAPGKERELVAAITRGGNTNYADSVKGRFTISRDNAKNTVYLQMNSLKPEDSAVYYCAADTSYYYVYGYFPGYYYWGQGTQVTVSS	low polyreactivity
QVQLVESGGGLVQAGGSLRLSCAASGRNFYLYGMGWYRQAPGKERELVAAIDWSDGSTYYADSVKGRFTISRDNAKNTVYLQMNSLKPEDTAVYYCAADGWAAWLYDYWGQGTQVTVSS	low polyreactivity
QVQLVESGGGLVQAGGSLRLSCAASGRNFYPYAMVWYRQAPGKERELVAAISKSGGRTYYADSVKGRFTISRDNAKNTVDLQMNSLKPEDTAVYYCNAAPGYTYVTYDYWGQGTLVTVSS	high polyreactivity
QVQLVESGGGLVQAGGSLRLSCAASGRNFYRYAMGRYREAPGKERELVAAIRYSGGRTYYADSVKGRFTISRDNAKNTFYLQMNSLKPEDTAVYYCASDGQWYYAPFRGGDYENDYWGQGTQVTLSS	low polyreactivity
QVQLVESGGGLVQAGGSLRLSCAASGRNFYVYTMGWYRQAPGKERELVAAISWSGGSTHHADSVKGRFTISRDNAKNTVYLQMNSLKPEDTAVYYCNKGVVSRVAFEYWGQGTQVTVSS	low polyreactivity
QVQLVESGGGLVQAGGSLRLSCAASGRNFYYNAMGWYRPAPGKERELVAAISSGGSTTYADSVKGRFTISRDNAKNTVYLQLNSLKPEDTAVYYCNADISAHYVIGVPTGYYWGQGTQVTVSS	low polyreactivity
QVQLVESGGGLVQAGGSLRLSCAASGRNIVGYAMGWYIQAPGKERELVAAITKSGGRTYYADSVKGRFTISRDNAKNTVYLQMNSLKPEDTAVYYCAVLNSKWNEYDYWGQGTQVTVSS	high polyreactivity

Sequence	polyreactivity (PSR sort gate)
QVQLVESGGGLVQAGGSLRLSCAASGRNIYSNAMGWYRQAPGKERELVAAIRWRDGSTYYADSVKGRFTISRDNAKNTVFLQMNSLKPVDTAVYYCAAVYWGEEYEYWGQGTQVTVSS	low polyreactivity
QVQLVESGGGLVQAGGSLRLSCAASGRNLQNYAMGWYRQPPGKERELVAAISFSGGRTNYADSVKGRFTISRDNAKNTVYLQMKSLNPEDTAVYYCAKVYRRSGSVSRYDYWGQGTQVTVSS	high polyreactivity
QVQLVESGGGLVQAGGSLRLSCAASGRNLVQYTMGWYRQAPGKERELVAVISWRECRTYYADSVKGRFTISRDNAKNTVFLQMNSLKPVDTAVYYCATSGSFWQRYYWGQGTQVTVSS	low polyreactivity
QVQLVESGGGLVQAGGSLRLSCAASGRNSLYYTMGWYRQAPGKEREFVAAISSTGGSTYYADSVKGRFTISRDNAKNTVYLLMNSLKPVDTAVYYCNKVYGGGTYDYWGQGTQVTVSS	low polyreactivity
QVQLVESGGGLVQAGGSLRLSCAASGRPFSSYAMGWYRQAPGKERELVARINSDGGRTYYADSVKGRFTISRDNAKDTVYLQMNSLKPEDTAVYYCAKRVVRGKVDYWGQGTQVTVSS	low polyreactivity
QVQLVESGGGLVQAGGSLRLSCAASGRSFGLYVMGWYRQAPGKERELVAAITGVGSTKYADSVKGRFTISRDNAKNTVYLQMNSLKPEDTEVYYCAKRYLYDRRHAEYWAANDYWGQGTQVTVSS	low polyreactivity
QVQLVESGGGLVQAGGSLRLSCAASGRSFRYNTMGWYRQAPGKERELVAAITKGAATTYYADSVKGRFTISRDNAKNTVYLKMTSLKPEDTAVYYCNAVYSRIVTQKYWGQGTQVTVSS	high polyreactivity
QVQLVESGGGLVQAGGSLRLSCAASGRSFRYYAMGWYRQAPGKERELVAAISVSGGTTYYADSVKGRFTISRDNAKNTVYLQMNSLKPEDTAVYYCNAYYLAEYDYWGQGTQVTVSS	high polyreactivity
QVQLVESGGGLVQAGGSLRLSCAASGRSFYLYAMGWYRQAPGKERELVAGITSGGRTNYADSVKGRFTISRDNAKNTVYLQMNSLKPEDTAVYYCAAGSRRYKYDYWGQGTQVTVSS	high polyreactivity
QVQLVESGGGLVQAGGSLRLSCAASGRTALIYAMGWYRQAPGKERELVAAITASGGNTDYADSVKGRFTISRDNAMNTVYLQMNSLKPEDTAVYYCNKSRYDGGSGYDYWGQGTQVTVSS	low polyreactivity
QVQLVESGGGLVQAGGSLRLSCAASGRTCGRYAMGWYRQAPGKERELVADISWNGGRTYYADSVKGRFTISRDNAKNTVYLKMNSLKPEDSAVYYCAKRFSPRYYYWGQGTQVTVSS	high polyreactivity
QVQLVESGGGLVQAGGSLRLSCAASGRTFAAYAMGWYRQAPGKERELVAAISRGGGRTYYADSVKGRFTISRDNAKNTVYLQMNSLKPEDTAVYYCNAVRPRDNGSWGQGTQVTVSS	high polyreactivity
QVQLVESGGGLVQAGGSLRLSCAASGRTFAGYAMGWYRQAPGKERELVAAISGSGGRTYYADSVKGRFTISRDYAKNTVYLQMNSLKPEDTAVYYCAASQRVYIARSDYWGQGSQVTVSS	high polyreactivity
QVQLVESGGGLVQAGGSLRLSCAASGRTFAGYAMGWYRQPPGKERELVAAITSSGGTTYYADSVKGRFTISRDNAKNTVYLQMNILKPEDTAVYSCAADLTWIYRWQTYNYDYWGQGTQVTVSS	high polyreactivity
QVQLVESGGGLVQAGGSLRLSCAASGRTFAINAMGWSRQAPGKEWELVASIRWTDGTTYYADSVKGRFTISRDNAKNTVYLQMNSLKPEDTAVYYCAADAEGSASKYDYWGQGTQVTVSS	low polyreactivity
QVQLVESGGGLVQAGGSLRLSCAASGRTFAINTMGWYRPAPGKEREFVASITRRGGSTYYADSVKWRFTISRDNAKNTVYLQMNSLKREDNAVYYCNAELRWRLPARAAYYYWGQGTQVTFSS	high polyreactivity
QVQLVESGGGLVQAGGSLRLSCAASGRTFAIYAMGWSRQAPGKERELVAAIRWRDGSTYYADSVKGRFTISRDNAKNTVYLQMNSLKPEDTAVYYCAATSRVYVRGSYWKYGYWGQGTQVTVSS	high polyreactivity
QVQLVESGGGLVQAGGSLRLSCAASGRTFAIYVMGWYRQAPGKERELVAAISRSGGNTYYADSVKGRFTISRDNAKNTVYLQMNSLKPEDTAVYYCAARVRERYYWGQGTQVTVSS	high polyreactivity
QVQLVESGGGLVQAGGSLRLSCAASGRTFAKYAMGWYRQAPGKEREFVAAITRGDTTNYADSVKGRFTISRDNAKNTVYLQMNSLKPEDTAVYYCNADSLYYDYQTVDVQALDYWGQGTQVTVSS	low polyreactivity
QVQLVESGGGLVQAGGSLRLSCAASGRTFALNAMGWYRQAPGKERELVAAISWSSGRTYYADSVKGRFTISRDNAKNKVYLQMNSLKPEDTAVYYCAALVAHKGDYWGQGTQVTVSS	high polyreactivity
QVQLVESGGGLVQAGGSLRLSCAASGRTFALNAMGWYRQAPGKERELVAAISWSSGRTYYADSVKGRFTISRDNAKNTDYLKMNSLKPEDSAVYYCAALVAHKGDYWGQGTQVTVSS	high polyreactivity
